Experimental data taken from paper PMC6313988.

Target: hypothetical protein ST2166 (putative isocitrate dehydrogenase) from Sulfolobus tokodaii strain 7 (Sulfolobus tokodaii strain 7)
Experiment: crystal structure; hanging-drop crystals of ST2166 (8 mg/mL) in 13% PEG 10,000, 100 mM HEPES pH 7.5, 10°C; space group P21, two monomers in the asymmetric unit; apo form at 2.0 Å and crystal soaked with 25 mM NADP+ at 2.4 Å

For “hypothetical protein ST2166 (putative isocitrate dehydrogenase) from Sulfolobus tokodaii strain 7 (enzyme)”, which stoichiometry N is on record?
The stoichiometry N was 2.
